# Laboratory results from patent US20140335146A1.
# Key:
# [1] = biological target: collagen-exposing bone material of epiphysis (rat femur, 0.6 N hydrochloric acid for 18 hours) (rat (Wistar)); test: depletion from supernatant, SDS-PAGE of supernatant (FIG. 3B)
# [2] = biological target: collagen-exposing bone material of diaphysis (rat femur, 0.6 N hydrochloric acid for 18 hours) (rat (Wistar)); test: depletion from supernatant, SDS-PAGE of supernatant (FIG. 4B)
substance,measurement,setting,value
bFGF-PKD-CBD fusion protein,amount of bone material at which the fusion protein (1.16 nmol) in the supernatant nearly disappeared,[1],40 mg
same,amount of bone material at which the fusion protein (1.16 nmol) in the supernatant nearly disappeared,[2],80 mg
